Test results: patent US20230295348A1 (NOVIMMUNE, published 2023)

T1: human recombinant IL-2Rβ (human, UniProt P14784 27-239, limits assumed)
T1 construct: Biotinylated and captured on streptavidin plates in the ELISA; also called IL-2Rb; IL2Rb
T1 sequence (looked up): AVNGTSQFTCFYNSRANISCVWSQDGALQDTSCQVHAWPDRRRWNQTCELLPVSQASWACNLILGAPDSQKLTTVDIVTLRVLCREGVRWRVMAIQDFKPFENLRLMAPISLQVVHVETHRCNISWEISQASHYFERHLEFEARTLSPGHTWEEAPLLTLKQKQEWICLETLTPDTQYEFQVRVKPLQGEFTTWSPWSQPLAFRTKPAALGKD

T2: human recombinant IL-2Rγ (human, UniProt P31785 23-262, limits assumed)
T2 construct: Biotinylated and captured on streptavidin plates in the ELISA; also called IL-2Rg; IL2Rg
T2 sequence (looked up): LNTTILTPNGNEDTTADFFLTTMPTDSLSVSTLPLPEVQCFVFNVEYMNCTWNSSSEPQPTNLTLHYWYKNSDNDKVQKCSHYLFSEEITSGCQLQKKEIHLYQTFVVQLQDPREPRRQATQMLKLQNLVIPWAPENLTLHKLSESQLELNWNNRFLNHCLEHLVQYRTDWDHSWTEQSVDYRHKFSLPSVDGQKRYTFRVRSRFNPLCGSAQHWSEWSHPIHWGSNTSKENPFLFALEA

T3: recombinant Human carcinoembryonic antigen (human, UniProt P06731 35-685, limits assumed)
T3 construct: Irrelevant control protein of the ELISA, biotinylated and captured on streptavidin plates; also called irrelevant protein; CEA
T3 sequence (looked up): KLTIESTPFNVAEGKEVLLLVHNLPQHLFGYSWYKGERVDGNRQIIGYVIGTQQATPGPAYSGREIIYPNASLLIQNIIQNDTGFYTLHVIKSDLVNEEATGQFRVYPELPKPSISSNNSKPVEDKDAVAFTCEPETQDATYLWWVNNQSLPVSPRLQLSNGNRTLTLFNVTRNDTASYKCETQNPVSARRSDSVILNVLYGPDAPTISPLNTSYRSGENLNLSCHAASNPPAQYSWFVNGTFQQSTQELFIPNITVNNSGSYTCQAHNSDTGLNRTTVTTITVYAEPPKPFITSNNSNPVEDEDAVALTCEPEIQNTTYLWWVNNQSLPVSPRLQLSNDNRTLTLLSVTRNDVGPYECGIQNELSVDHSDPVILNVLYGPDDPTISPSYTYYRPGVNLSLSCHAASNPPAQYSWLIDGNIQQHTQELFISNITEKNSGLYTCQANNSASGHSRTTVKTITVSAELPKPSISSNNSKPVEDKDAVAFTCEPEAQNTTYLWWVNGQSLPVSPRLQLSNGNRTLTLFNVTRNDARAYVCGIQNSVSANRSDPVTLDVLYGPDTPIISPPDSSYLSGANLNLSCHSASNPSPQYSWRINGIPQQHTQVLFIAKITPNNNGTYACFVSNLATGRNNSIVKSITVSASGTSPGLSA


How the values were obtained:
Experiment in all cases: direct ELISA, biotinylated recombinant protein on streptavidin plates
human recombinant IL-2Rβ = target: T1, human recombinant IL-2Rβ
human recombinant IL-2Rγ = target: T2, human recombinant IL-2Rγ
[1] = target: T3, recombinant Human carcinoembryonic …
human recombinant HER2 = target: T4, human recombinant HER2 (human, UniProt P04626 23-652)
T4 construct: Biotinylated and captured on streptavidin plates in the ELISA; also called human epidermal growth factor receptor 2

Binder | binding result (human recombinant IL-2Rβ) | binding result (human recombinant IL-2Rγ) | binding result [1] | binding result (human recombinant HER2)
AL4O41 (bispecific antibody, human IgG1, kappa, lambda, L234A L235A, κλ-body: common heavy chain, kappa anti-IL2Rβ light chain (AL4), lambda anti-MSLN light chain (O41); also called AL4O41/N) heavy: not shown light 1: DIQMTQSPSSLSASVGDRVTITCRASQSIDEYLNWYQQKPGKAPKLLIYEASKLQSGVPSRFSGSGSGTDFTLTISSLQPEDFATYYCQQDGAMDTYATFGQGTKVEIKRTVAAPSVFIFPPSDEQLKSGTASVVCLLNNFYPREAKVQWKVDNALQSGNSQESVTEQDSKDSTYSLSSTLTLSKADYEKHKVYACEVTHQGLSSPVTKSFNRGEC light 2: SYVLTQPPSVSVAPGKTARITCGGNKIGHRAVHWYQQKPGQAPVLVIYYTYERPSGIPERFSGSNSGNTATLTISRVEAGDEADYYCQVWDWYSEGGVVFGGGTKLTVLGQPKAAPSVTLFPPSSEELQANKATLVCLISDFYPGAVTVAWKADSSPVKAGVETTTPSKQSNNKYAASSYLSLTPEQWKSHRSYSCQVTHEGSTVEKTVAPTECS | binds |  |  | 
P1A3×P2C4 (bispecific antibody, V domains shown, anti-IL-2Rβ (P2C4) in the knob arm; also called anti-IL-2Rβ×anti-IL-2Rγ bsAb; IL-2Rβ×IL-2Rγ KiH bsAb) VH 1: QVQLQQWGAGLLKPSETLSLTCAVYGGSFSGYYWSWIRQPPGKGLEWIGEINHSGSTNYNPSLKSRATISVDTSKNQFSLKLSSVTAADTAVYYCATSPGGYSGGYFQHWGQGTLVTVSS VL 1: not shown VH 2: EVQLVQSGAEVKKPGSSVKVSCKASGYTFTNYYMHWVRQAPGQGLEWMGAIMPSRGGTSYPQKFQGRVTMTGDTSTSTVYMELSSLRSEDTAVYYCARGEYYYDSSGYYYWGQGTLVTVSS VL 2: QSALTQPASVSGSPGQSIAISCTGTSSDIGHYDFVSWYQQHPGTAPKLIIYDINNRPSGISNRFSGSKSDNMASLTISGLQPEDEADYYCSAYTSSDTLVFGGGTKLT | binds | binds | no binding | 
AL1N2-28 (bispecific antibody, human IgG1, kappa, lambda, L234A L235A, κλ-body: common heavy chain, kappa anti-IL2Rβ light chain (AL1), lambda anti-HER2 light chain (N2-28); also called AL1N2-28/N) heavy: not shown light 1: not shown light 2: SYVLTQPPSVSVAPGKTARITCGGNTIGSTVVHWYQQKPGQAPVLVIYFDDARPSGIPERFSGSNSGNTATLTISRVEAGDEADYYCQVWDSFGLSLAPVFGGGTKLTVLGQPKAAPSVTLFPPSSEELQANKATLVCLISDFYPGAVTVAWKADSSPVKAGVETTTPSKQSNNKYAASSYLSLTPEQWKSHRSYSCQVTHEGSTVEKTVAPTECS | binds |  |  | binds

Next, values leading:

binding result (human recombinant IL-2Rβ) | binding result (human recombinant IL-2Rγ) | binding result [1] | binding result (human recombinant HER2) | Binder
binds |  |  |  | AL4O30 (bispecific antibody, human IgG1, kappa, lambda, L234A L235A, κλ-body: common heavy chain, kappa anti-IL2Rβ light chain (AL4), lambda anti-MSLN light chain (O30); also called AL4O30/N) heavy: not shown light 1: DIQMTQSPSSLSASVGDRVTITCRASQSIDEYLNWYQQKPGKAPKLLIYEASKLQSGVPSRFSGSGSGTDFTLTISSLQPEDFATYYCQQDGAMDTYATFGQGTKVEIKRTVAAPSVFIFPPSDEQLKSGTASVVCLLNNFYPREAKVQWKVDNALQSGNSQESVTEQDSKDSTYSLSSTLTLSKADYEKHKVYACEVTHQGLSSPVTKSFNRGEC light 2: not shown
binds |  |  |  | AL4O35 (bispecific antibody, human IgG1, kappa, lambda, L234A L235A, κλ-body: common heavy chain, kappa anti-IL2Rβ light chain (AL4), lambda anti-MSLN light chain (O35); also called AL4O35/N) heavy: not shown light 1: DIQMTQSPSSLSASVGDRVTITCRASQSIDEYLNWYQQKPGKAPKLLIYEASKLQSGVPSRFSGSGSGTDFTLTISSLQPEDFATYYCQQDGAMDTYATFGQGTKVEIKRTVAAPSVFIFPPSDEQLKSGTASVVCLLNNFYPREAKVQWKVDNALQSGNSQESVTEQDSKDSTYSLSSTLTLSKADYEKHKVYACEVTHQGLSSPVTKSFNRGEC light 2: QPVLTQPVSLSASPGASVSLTCTLRSDIRVRDYRIFWYQQKPGSPPQYLLRYKTDSDKQQGSGVPSRFSGSKDASANAGILLISGLQSEDEADYYCMIWHRTTGTSLVFGGGTKLTVLGQPKAAPSVTLFPPSSEELQANKATLVCLISDFYPGAVTVAWKADSSPVKAGVETTTPSKQSNNKYAASSYLSLTPEQWKSHRSYSCQVTHEGSTVEKTVAPTECS
binds |  |  |  | AL4O38 (bispecific antibody, human IgG1, kappa, lambda, L234A L235A, κλ-body: common heavy chain, kappa anti-IL2Rβ light chain (AL4), lambda anti-MSLN light chain (O38); also called AL4O38/N) heavy: not shown light 1: DIQMTQSPSSLSASVGDRVTITCRASQSIDEYLNWYQQKPGKAPKLLIYEASKLQSGVPSRFSGSGSGTDFTLTISSLQPEDFATYYCQQDGAMDTYATFGQGTKVEIKRTVAAPSVFIFPPSDEQLKSGTASVVCLLNNFYPREAKVQWKVDNALQSGNSQESVTEQDSKDSTYSLSSTLTLSKADYEKHKVYACEVTHQGLSSPVTKSFNRGEC light 2: QPVLTQPASLSASPGASASLTCTLRSGINVRDYRIFWYQQKPGSPPQYLLRYKSASDKQQGSGVPSRFSGSKDASANAGILLISGLQSEDEADYYCMIWHHDSEGHAFVFGGGTKLTVLGQPKAAPSVTLFPPSSEELQANKATLVCLISDFYPGAVTVAWKADSSPVKAGVETTTPSKQSNNKYAASSYLSLTPEQWKSHRSYSCQVTHEGSTVEKTVAPTECS
